Assays:
AncSZ = experiment: phosphorylation enrichment, bacterial display (enrichment ratio); higher = better substrate or ligand; peptides without Tyr show the background
EPHB1 = EPHB1 (UniProt P54762); experiment: as above
EPHB2 = EPHB2 (UniProt P29323); experiment: as above
FGFR1 = FGFR1 (UniProt P11362); experiment: as above
FGFR3 = FGFR3 (UniProt P22607); experiment: as above
Fer (mouse) = experiment: as above
Fes = Fes (UniProt P07332); experiment: as above
Fyn = Fyn (UniProt P06241); experiment: as above
Hck = Hck (UniProt P08631); experiment: as above
Jak2 = Jak2 (UniProt O60674); experiment: as above
MERTK = MERTK (UniProt Q12866); experiment: as above
c-Abl (mouse) = experiment: as above
c-Src = experiment: as above
Grb2 SH2 = Grb2 SH2 (UniProt P62993); experiment: SH2 binding enrichment of the phosphorylated peptide, bacterial display (enrichment ratio); higher = better substrate or ligand; peptides without Tyr show the background
SHP2-C SH2 = experiment: as above
c-Src SH2 = experiment: as above
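Wherever SH2 binding enrichment of the phosphorylated peptide, bacterial display is given: peptide library displayed on the E. coli surface as eCPX fusions, selected cells deep-sequenced, score is each peptide's frequency after selection divided by its frequency in the input.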
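Wherever phosphorylation enrichment, bacterial display is given: 11-residue human phosphosite peptides and single-mutation variants displayed on the E. coli surface, counted by deep sequencing, each peptide's frequency after selection divided by its frequency in the unselected input library; frequency after pTyr selection over input frequency; kinase dosed for 20-30% of maximal phosphorylation in three min.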

Chain of FGFR3 (P22607 whole entry, looked up): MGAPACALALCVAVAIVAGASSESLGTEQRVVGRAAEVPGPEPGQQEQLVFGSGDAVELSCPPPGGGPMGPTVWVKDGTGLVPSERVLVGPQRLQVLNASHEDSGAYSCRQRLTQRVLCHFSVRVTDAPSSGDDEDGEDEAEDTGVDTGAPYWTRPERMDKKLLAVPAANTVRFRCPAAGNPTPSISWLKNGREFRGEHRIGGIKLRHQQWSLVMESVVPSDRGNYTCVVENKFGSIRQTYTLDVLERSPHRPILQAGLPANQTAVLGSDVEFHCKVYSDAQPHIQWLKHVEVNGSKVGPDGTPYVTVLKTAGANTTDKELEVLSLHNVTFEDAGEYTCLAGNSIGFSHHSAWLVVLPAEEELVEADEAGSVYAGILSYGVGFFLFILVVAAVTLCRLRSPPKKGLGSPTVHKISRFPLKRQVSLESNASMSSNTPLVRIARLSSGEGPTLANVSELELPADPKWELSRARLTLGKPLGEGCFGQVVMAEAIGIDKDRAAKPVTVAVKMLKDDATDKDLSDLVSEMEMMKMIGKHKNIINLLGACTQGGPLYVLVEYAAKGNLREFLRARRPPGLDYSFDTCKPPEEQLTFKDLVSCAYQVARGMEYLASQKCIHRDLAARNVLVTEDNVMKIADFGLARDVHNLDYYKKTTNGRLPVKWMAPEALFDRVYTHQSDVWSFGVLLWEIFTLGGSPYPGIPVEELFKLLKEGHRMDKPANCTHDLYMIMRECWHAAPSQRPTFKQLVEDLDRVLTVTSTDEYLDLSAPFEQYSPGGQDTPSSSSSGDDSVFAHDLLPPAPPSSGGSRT
Chain of EPHB2 (P29323 whole entry, looked up): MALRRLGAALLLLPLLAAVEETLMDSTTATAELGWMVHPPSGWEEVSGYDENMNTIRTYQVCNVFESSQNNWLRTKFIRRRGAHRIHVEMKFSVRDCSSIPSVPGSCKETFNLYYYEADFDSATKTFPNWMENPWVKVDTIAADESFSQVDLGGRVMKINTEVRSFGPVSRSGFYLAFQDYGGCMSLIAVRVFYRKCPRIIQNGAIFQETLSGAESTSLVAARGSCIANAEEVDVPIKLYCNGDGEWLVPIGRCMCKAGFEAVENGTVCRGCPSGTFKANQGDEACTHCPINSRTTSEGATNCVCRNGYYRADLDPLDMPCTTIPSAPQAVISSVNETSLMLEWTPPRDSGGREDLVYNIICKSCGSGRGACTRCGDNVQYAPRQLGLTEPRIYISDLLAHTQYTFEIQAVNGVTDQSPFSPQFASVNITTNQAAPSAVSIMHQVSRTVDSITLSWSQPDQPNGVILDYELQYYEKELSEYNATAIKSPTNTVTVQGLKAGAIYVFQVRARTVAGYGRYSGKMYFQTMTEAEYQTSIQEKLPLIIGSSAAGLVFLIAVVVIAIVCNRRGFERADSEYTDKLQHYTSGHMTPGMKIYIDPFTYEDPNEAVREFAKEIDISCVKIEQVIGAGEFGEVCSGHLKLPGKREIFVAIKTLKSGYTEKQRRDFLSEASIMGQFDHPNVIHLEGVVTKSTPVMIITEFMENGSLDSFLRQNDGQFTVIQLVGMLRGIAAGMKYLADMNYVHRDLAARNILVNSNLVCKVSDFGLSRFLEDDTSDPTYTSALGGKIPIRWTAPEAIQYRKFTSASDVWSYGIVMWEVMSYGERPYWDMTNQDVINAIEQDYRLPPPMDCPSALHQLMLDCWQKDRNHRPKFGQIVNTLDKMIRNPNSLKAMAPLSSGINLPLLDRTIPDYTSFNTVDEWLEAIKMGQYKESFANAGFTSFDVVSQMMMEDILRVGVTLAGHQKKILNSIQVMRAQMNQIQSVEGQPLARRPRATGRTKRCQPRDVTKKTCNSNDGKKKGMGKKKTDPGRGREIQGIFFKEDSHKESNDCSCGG
Chain of Jak2 (O60674 whole entry, looked up): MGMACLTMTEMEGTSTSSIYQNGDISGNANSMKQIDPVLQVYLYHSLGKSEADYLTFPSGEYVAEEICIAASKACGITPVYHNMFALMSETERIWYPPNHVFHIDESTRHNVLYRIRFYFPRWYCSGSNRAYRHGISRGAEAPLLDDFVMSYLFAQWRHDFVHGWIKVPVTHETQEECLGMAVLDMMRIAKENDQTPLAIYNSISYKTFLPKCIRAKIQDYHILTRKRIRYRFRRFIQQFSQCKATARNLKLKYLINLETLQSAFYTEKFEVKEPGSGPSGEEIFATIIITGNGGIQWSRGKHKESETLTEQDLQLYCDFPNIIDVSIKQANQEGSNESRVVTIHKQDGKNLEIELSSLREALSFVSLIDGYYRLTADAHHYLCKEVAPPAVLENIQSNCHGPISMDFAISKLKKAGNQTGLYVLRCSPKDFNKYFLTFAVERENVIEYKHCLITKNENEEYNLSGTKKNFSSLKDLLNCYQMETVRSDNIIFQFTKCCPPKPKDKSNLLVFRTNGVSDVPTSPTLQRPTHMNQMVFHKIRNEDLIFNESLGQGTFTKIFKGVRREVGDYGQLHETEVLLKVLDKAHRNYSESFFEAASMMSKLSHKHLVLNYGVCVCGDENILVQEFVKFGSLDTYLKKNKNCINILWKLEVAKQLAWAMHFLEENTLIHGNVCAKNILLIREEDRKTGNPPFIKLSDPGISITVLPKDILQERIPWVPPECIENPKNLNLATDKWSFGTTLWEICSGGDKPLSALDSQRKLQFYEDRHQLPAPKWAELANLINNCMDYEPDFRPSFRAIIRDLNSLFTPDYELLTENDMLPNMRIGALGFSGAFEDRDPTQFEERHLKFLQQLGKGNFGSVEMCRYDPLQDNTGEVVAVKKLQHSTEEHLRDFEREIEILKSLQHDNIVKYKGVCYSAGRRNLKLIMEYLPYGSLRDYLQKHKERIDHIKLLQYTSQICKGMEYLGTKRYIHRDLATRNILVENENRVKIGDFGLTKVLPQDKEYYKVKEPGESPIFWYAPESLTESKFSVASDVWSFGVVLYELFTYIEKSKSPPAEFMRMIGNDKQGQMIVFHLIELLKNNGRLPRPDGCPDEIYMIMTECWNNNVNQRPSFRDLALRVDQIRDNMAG
Chain of Hck (P08631 whole entry, looked up): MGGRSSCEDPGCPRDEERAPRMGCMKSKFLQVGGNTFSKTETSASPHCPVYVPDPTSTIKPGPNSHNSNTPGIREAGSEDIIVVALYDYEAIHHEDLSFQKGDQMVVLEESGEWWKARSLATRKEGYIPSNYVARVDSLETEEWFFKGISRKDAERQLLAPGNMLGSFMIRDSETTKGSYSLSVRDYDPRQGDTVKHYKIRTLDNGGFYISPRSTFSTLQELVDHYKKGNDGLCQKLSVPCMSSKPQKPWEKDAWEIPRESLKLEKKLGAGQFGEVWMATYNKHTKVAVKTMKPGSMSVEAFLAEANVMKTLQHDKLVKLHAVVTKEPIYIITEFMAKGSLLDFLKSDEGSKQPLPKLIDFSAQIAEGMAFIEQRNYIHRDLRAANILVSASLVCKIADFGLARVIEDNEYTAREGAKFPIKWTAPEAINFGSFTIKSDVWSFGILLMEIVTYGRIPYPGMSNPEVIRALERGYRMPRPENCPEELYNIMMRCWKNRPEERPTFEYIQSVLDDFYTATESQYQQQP
Chain of Fes (P07332 whole entry, looked up): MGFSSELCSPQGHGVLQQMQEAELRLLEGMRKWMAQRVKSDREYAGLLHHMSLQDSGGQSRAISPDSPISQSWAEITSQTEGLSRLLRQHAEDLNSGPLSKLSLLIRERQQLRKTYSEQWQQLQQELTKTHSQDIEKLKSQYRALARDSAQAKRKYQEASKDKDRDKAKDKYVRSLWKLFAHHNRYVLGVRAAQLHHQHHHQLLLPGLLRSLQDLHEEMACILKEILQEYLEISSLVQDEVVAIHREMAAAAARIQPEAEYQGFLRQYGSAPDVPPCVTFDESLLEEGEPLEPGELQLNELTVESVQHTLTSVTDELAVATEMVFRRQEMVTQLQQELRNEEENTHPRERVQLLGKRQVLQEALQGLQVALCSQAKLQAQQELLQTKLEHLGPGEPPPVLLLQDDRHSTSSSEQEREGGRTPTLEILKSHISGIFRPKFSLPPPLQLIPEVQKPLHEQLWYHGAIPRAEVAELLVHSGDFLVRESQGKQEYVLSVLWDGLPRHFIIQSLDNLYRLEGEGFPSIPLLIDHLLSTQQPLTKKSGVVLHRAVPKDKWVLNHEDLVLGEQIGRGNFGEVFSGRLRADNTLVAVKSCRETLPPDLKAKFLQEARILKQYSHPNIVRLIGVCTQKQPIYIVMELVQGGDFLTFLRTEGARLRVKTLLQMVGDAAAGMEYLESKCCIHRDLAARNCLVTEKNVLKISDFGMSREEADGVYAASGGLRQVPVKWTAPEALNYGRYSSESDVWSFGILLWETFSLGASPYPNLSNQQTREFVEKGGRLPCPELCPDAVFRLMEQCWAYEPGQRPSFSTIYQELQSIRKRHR
Chain of Fyn (P06241 whole entry, looked up): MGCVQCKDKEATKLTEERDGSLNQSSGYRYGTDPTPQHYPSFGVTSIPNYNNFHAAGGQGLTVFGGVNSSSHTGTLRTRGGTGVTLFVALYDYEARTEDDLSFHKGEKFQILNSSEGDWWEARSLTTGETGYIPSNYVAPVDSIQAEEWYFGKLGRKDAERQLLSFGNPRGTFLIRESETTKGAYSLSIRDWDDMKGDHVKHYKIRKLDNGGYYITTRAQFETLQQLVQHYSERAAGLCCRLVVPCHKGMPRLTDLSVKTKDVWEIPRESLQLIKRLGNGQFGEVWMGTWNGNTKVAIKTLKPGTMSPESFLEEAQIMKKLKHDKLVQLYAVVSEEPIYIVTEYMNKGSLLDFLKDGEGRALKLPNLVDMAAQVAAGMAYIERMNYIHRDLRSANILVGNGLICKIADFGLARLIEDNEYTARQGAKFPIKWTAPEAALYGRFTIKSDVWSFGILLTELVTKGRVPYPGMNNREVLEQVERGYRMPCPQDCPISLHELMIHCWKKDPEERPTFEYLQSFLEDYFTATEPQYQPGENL

Row | Sequence | SH2 binding enrichment (Grb2 SH2) | SH2 binding enrichment (SHP2-C SH2) | SH2 binding enrichment (c-Src SH2) | phosphorylation enrichment (AncSZ) | phosphorylation enrichment (EPHB1) | phosphorylation enrichment (EPHB2) | phosphorylation enrichment (FGFR1) | phosphorylation enrichment (FGFR3) | phosphorylation enrichment (Fer (mouse)) | phosphorylation enrichment (Fes) | phosphorylation enrichment (Fyn) | phosphorylation enrichment (Hck) | phosphorylation enrichment (Jak2) | phosphorylation enrichment (MERTK) | phosphorylation enrichment (c-Abl (mouse)) | phosphorylation enrichment (c-Src)
1 | RLLCEYQELMN [KRT75_Y434_R432C] | 0.618 | 0.566 | 0.54 | 1.5 | 1.34 | 1.09 | 0.961 | 1.6 | 0.839 | 1.78 | 0.83 | 0.761 | 1.33 | 0.369 | 0.804 | 0.647
2 | RLLRGYNQSAF [HLA-C_Y137_D138N_YF] | 1.14 | 0.705 | 0.976 | 0.54 | 0.503 | 0.417 | 0.665 | 0.547 | 0.268 | 0.804 | 0.458 | 0.402 | 0.476 | 0.56 | 0.316 | 0.424
3 | RLPSGYGLAFR [DLK1_Y262_YF] | 0.823 | 0.852 | 0.521 | 0.734 | 0.416 | 0.526 | 0.422 | 0.595 | 0.49 | 0.885 | 0.549 | 0.509 | 0.837 | 0.396 | 0.889 | 0.478
4 | RMGNLYDIDED [GRIN2A_Y1246] | 0.599 | 0.501 | 1.23 | 1.11 | 0.583 | 0.491 | 0.591 | 0.808 | 0.543 | 1.32 | 2.25 | 1.25 | 1.36 | 0.606 | 1.11 | 1.25
5 | RNDRVYQPLRD [CD3D_Y149_Q147R] | 0.845 | 0.727 | 0.943 | 0.604 | 0.629 | 0.432 | 0.41 | 0.616 | 0.475 | 0.785 | 0.675 | 5.18 | 0.509 | 0.786 | 0.689 | 1.55
6 | RNGNRYFKGIV [DCX_Y64_D62N] | 0.602 | 0.726 | 0.509 | 1.33 | 0.516 | 0.51 | 0.578 | 0.513 | 0.6 | 0.607 | 0.42 | 0.527 | 1.02 | 0.701 | 0.799 | 0.846

Further lines, with some results ahead:

Row | SH2 binding enrichment (Grb2 SH2) | SH2 binding enrichment (SHP2-C SH2) | SH2 binding enrichment (c-Src SH2) | Sequence | phosphorylation enrichment (AncSZ) | phosphorylation enrichment (EPHB1) | phosphorylation enrichment (EPHB2) | phosphorylation enrichment (FGFR1) | phosphorylation enrichment (FGFR3) | phosphorylation enrichment (Fer (mouse)) | phosphorylation enrichment (Fes) | phosphorylation enrichment (Fyn) | phosphorylation enrichment (Hck) | phosphorylation enrichment (Jak2) | phosphorylation enrichment (MERTK) | phosphorylation enrichment (c-Abl (mouse)) | phosphorylation enrichment (c-Src)
7 | 0.846 | 0.984 | 0.884 | RLSVDCGKKSK [TUBA4A_Y161_Y161C] | 0.684 | 1.03 | 0.619 | 0.444 | 0.788 | 0.571 | 0.825 | 0.551 | 0.462 | 1.1 | 0.432 | 0.828 | 0.471
8 | 1.14 | 1.96 | 0.7 | RNFVHYVQGLK [VWF_Y1400_R1399H] | 0.875 | 0.511 | 0.515 | 0.429 | 0.52 | 0.349 | 0.833 | 0.613 | 0.369 | 0.605 | 0.544 | 0.669 | 0.583

— the supplement of paper PMC10065799, “High-throughput profiling of sequence recognition by tyrosine kinases and SH2 domains using bacterial peptide display” (eLife, 2023)
